In the MegaScale stability set (Tsuboyama et al. 2023):

B1: EHEE_rd3_0053 (parent)
chain: TYTFKVDNKDQAKKAAKWAKKLGLSFQIEKHGDTFKITVQ

Variants of: B1
Test: folding stability dG (cDNA display proteolysis); higher = more stable
Conditions: PBS, room temperature

Folding stability dG [kcal/mol]: each site, then its substitutions
K20: M 2.34; Q 2.3; I 2.24; R 2.45; F 2.07; W 2.14; G 1.54; D 1.48; S 2.08; Y 2.13; L 2.28; N 1.83; A 2.29; T 2.24; H 2.01; E 2.02; C 2.67; P -0.72; V 1.98
A19: I 2.44; P -0.671; W 1.23; F 2.84; S 0.85; G 0.902; K -0.645; Y 2.32; Q -0.184; E -0.425; N -0.253; R -0.112; T 0.316; M 2.79; V 1.47; L 3.38; H 0.465
S25: K 2.46; P 1.97; Y 2.18; T 2.45; G 1.89; V 2.42; W 2.38; D 2.18; R 2.4; A 2.36; M 2.29; H 2.29; E 2.21; N 2.36; Q 2.37; L 2.39; I 2.43; F 2.31
E29: K 2.07; L 1.89; W 2; F 1.95; T 2.48; N 1.77; R 2.11; I 2.24; A 2.06; M 2.05; Q 2.19; S 2.27; D 1.93; H 2.01; V 2.43; Y 1.95; G 1.19; C 2.64
L22: H 2.6; T 1.41; I 1.76; S 1.56; Q 2.14; A 2.08; G 0.897; F 2.08; M 2.54; V 1.78; W 2.21; K 2.44; C 3.29; E 1.46; N 2.32; R 2.63; D -0.31; Y 2.3
H31: S 2.45; Y 2.45; N 2.42; T 2.66; I 2.89; G 1.34; D 2.97; E 2.93; M 2.68; Q 2.65; F 2.55; K 2.14; P 0.239; W 2.41; V 2.87; A 2.41; C 3.09; L 2.59; R 2.08
W18: S 0.747; Q 1.17; D 0.328; N 0.859; H 1.22; E 0.8; L 1.77; I 1.72; F 1.56; Y 1.61; T 1.1; M 1.68; A 1.21; K 1.45; V 1.36; G 0.349; R 1.5
F26: I 2.64; C 2.68; Q -0.496; Y 2.29; S 1.03; G -0.311; T 1.34; M 2.05; A 1.81; P 0.848; V 2.54; L 2.13; H 1.02; W 1.88; N -0.442
Q27: M 2.54; D 1.9; S 2.61; Y 2.58; T 2.71; R 2.61; L 2.42; V 2.62; W 2.62; E 2.22; F 2.6; I 2.67; G 1.53; N 2.29; A 2.31; C 2.84; H 2.52; K 2.64
K14: Y 2.17; V 2.08; W 2.4
K17: Y 2.34; W 2.43; R 2.63; L 2.5; D 2.16; H 2.21; I 2.53; P -0.379; T 2.17; F 2.26; A 2.61; M 2.52; V 2.23; Q 2.57; S 2.33; N 2.23; G 1.9; C 2.6; E 2.36
A16: Q 2.16; G 1.84; S 1.87; K 2.41; N 1.06; W 2.37; M 2.45; F 2.28; V 2.47; R 2.56; H 1.65; Y 2.45; I 2.73; T 1.87; D 0.642; L 2.33
A15: T 1.85; Q 0.637; W 3.48; V 3.15; I 3.43; N 0.377; G 0.564; K 1.25; M 2.5; L 2.82; P -0.232; Y 3.04; F 3.33; D -0.785; H 1.42; R 1.43; C 3.07; E 0.415; S 1.26
D33: P 2.12; H 2.1; A 2.18; E 2.38; K 2.35; I 1.91; L 2.14; F 2; G 2.23; N 2.45; M 2.1
G23: A 1.23; Q 1.52; K 1.85; Y 1.1; T 0.657; R 1.66; C 1.62; M 1.59; S 1.42; W 0.761; D 1.02; E 1.08; P -0.809; I 0.784; F 1.3; L 1.24; H 1.79; N 1.97; V 0.722
L24: W 2.04; Q 0.563; V 1.4; K 1.32; D -0.587; Y 2.33; N 0.22; S 0.343; F 2.2; R 1.15; G 0.159; E -0.483; T 0.294; I 1.73; A 1.01; H 1.31; M 2.11
I28: N -0.243; V 2.23; S 1.26; G -0.457; Q 0.977; E 0.501; A 1.42; Y 1.33; L 1.84; H 0.125; W 1.53; M 2.15; F 1.47; K 1.06; T 0.849; R 0.785
G32: T 0.996; Q 1.76; Y 1.59; S 1.31; L 1.7; F 1.65; C 1.78; D 1.85; R 1.58; H 1.61; W 1.31; M 1.7; I 1.21; N 1.96; V 1.19; K 1.77; E 2.03; P 0.72; A 1.64
K30: F 1.91; S 2.03; D 1.84; R 2.5; Q 2.48; Y 1.92; I 2.15; V 2.21; G 1.57; P 2.09; M 2.16; E 2.04; A 2.21; L 1.98; W 1.64; N 1.88; H 1.91; T 2.04
K21: A 2.41; M 2.4; T 2.16; Y 2.02; E 2.02; L 2.15; V 1.89; H 2.16; N 2.17; S 2.43; I 1.99; W 2.19; P -0.644; D 1.89; F 1.98; G 2.12; R 2.49; Q 2.24
